Experimental data: publication PMC9287376

Columns and labels:
Details in all cases: natural protein; chains chain; remark: other sources report otherwise
[1] = target: T1, wild-type trigger factor, P0A850; experiment: 0.06 M GdnHCl
T1 chain: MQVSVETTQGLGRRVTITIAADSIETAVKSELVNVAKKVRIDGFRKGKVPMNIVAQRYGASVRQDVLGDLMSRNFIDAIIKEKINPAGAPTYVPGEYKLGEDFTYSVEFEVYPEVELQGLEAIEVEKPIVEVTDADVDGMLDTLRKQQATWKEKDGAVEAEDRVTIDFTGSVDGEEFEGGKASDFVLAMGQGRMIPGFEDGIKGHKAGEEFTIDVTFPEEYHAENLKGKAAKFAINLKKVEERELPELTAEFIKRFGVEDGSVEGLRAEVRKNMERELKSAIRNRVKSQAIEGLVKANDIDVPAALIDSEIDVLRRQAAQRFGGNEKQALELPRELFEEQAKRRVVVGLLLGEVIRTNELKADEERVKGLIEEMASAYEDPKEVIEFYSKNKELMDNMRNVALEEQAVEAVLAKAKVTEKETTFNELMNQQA

[2] = target: T1, wild-type trigger factor, P0A850; experiment: 0.26 M GdnHCl
[3] = target: T1, wild-type trigger factor, P0A850; experiment: native buffer, no denaturant

B1: wild-type trigger factor, P0A850 1-432 (protein)
chain: MQVSVETTQGLGRRVTITIAADSIETAVKSELVNVAKKVRIDGFRKGKVPMNIVAQRYGASVRQDVLGDLMSRNFIDAIIKEKINPAGAPTYVPGEYKLGEDFTYSVEFEVYPEVELQGLEAIEVEKPIVEVTDADVDGMLDTLRKQQATWKEKDGAVEAEDRVTIDFTGSVDGEEFEGGKASDFVLAMGQGRMIPGFEDGIKGHKAGEEFTIDVTFPEEYHAENLKGKAAKFAINLKKVEERELPELTAEFIKRFGVEDGSVEGLRAEVRKNMERELKSAIRNRVKSQAIEGLVKANDIDVPAALIDSEIDVLRRQAAQRFGGNEKQALELPRELFEEQAKRRVVVGLLLGEVIRTNELKADEERVKGLIEEMASAYEDPKEVIEFYSKNKELMDNMRNVALEEQAVEAVLAKAKVTEKETTFNELMNQQA
Kd [1]: 29 µM
Kd [2]: 76 µM
Kd [3]: 18.4 µM
